# Assay: soluble on expression in E. coli; label from the status in PepcDB or PDB records
row,Sequence,soluble on expression in E. coli
1,MSQIMYNYPAMMAHAGDMAGYAGTLQSLGADIASEQAVLSSAWQGDTGITYQGWQTQWNQALEDLVRAYQSMSGTHESNTMAMLARDGAEAAKWGG,soluble
2,MSQKTEQDDIPLADDDDTVTIISGGKTPRAAQPLPKEEPPEDPEEKARMITQVLELQNTLDDLSQRVESVKEESLKLRSENQVLGQYIQNLMSSSSVFQSSQPSRPKQ,soluble
3,MSQLLQDYLNWENYILRRVDFPTSYVVEGEVVRIEAMPRLYISGMGGSGVVADLIRDFSLTWNWEVEVIAVKDYFLKARDGLLIAVSYSGNTIETLYTVEYAKRRRIPAVAITTGGRLAQMGVPTVIVPKASAPRAALPQLLTAALHVVAKVYGIDVKIPEGLEPPNEALIHKLVEEFQKRPTIIAAESMRGVAYRVKNEFNENAKIEPSVEILPEAHHNWIEGSERAVVALTSPHIPKEHQERVKATVEIVGGSIYAVEMHPKGVLSFLRDVGIASVKLAEIRGVNPLATPRIDALKRRLQ,soluble
4,MSQNDLNKEKALVVFSGGQDSTTCLFYAKKHFKEVELVTFNYGQRHDKEIEVAKKIAKEQNLKHHILDMSLLSQLTPNALTQHELSIEDNDDGIPNTFVPARNLLFLSFAGALAYQIHAKHIITGVCETDFSGYPDCRDSFIKSMNVTLSLSMDKDFVIHTPLMWLDKAQTWALSDKLGVLDYIRHNTLTCYNGIIGDGCGECPACHLRARGLKHYLEHKGEE,not soluble
5,MSQNLFNVEDYRKLAQKRLPKMVYDYLEGGAEDEYGVKHNRDVFQQWRFKPKRLVDVSRRSLQAEVLGKRQSMPLLIGPTALNGALWPKGDLALARAATKAGIPFVLSTASNMSIEDLARQCDGDLWFQLYVIHREIAQGMVLKALHTGYTTLVLTTDVAVNGYRERDLHNRFKIPPFLTLKNFEGIDLGKMDKANLEMQAALMSRQMDASFNWEALRWLRDLWPHKLLVKGLLSAEDADRCIAEGADGVILSNHGGRQLDCAISPMEVLAQSVAKTGKPVLIDSGFRRGSDIVKALALGAEAVLLGRATLYGLAARGETGVDEVLTLLKADIDRTLAQIGCPDITSLSPDYLQNEGVTNTAPVDHLIGKGTHAHHHHHH,soluble
6,MSQPESPEQRRTAILATAERILRSGSPLTLGKVAQEVGISRTALYRYVSGIDEIIETLATKDFPHWLTSLRSAMAAAPTPKQRALCWAIESIKLGRETDHAWLATLSSLNLSENCRNAIASEHSKIDQLLRVELAQLGTPHIELTVATVRAVVMTAIQTPSSTEADDYFTATISAIIDASC,not soluble
7,MSQQVTMSFSVVPQAKTKDVYSVVDKAIEVVQQSGVRYEVGAMETTLEGELDVLLDVVKRAQQACVDAGAEEVITSIKIHYRPSTGVTIDEKVWKYRDEYAKPEAI,soluble
8,MSQRPTSSHDSSAPHHIPVDDCLTYDTGYRPNLPGQRTWWVFCPVTGAFDNSYALLGAMIECVARGQATLAPAWDRTFAGGIWYDFDCGADVLDGRLLMDMAVDDMQRRIERYMSTNDGQMGCKPALGFR,not soluble
9,MSQSTSAGGSQAVAQNPGAKLGFSMRSASIASDSVPCESGLCEAPPGVLSGAGTVFCESTYKVKIDNETVWQVPTRLKFVKKVGSGAYGCVASFEDTSASASEQGTEDDPSRREQSGETRTSQTGSAEGDSGTNKKVAVKKIGDLFRDLIDAKRIYREIKILKELKHENIINLVEILDPLTPDFEDIYLVSDLMDTDLHRVIYSRQPLTPEHHQYFLYQLLLGLSFLHQADIIHRDLKPSNILVNLNCDIKICDFGLARGLNMNPAPPPNLLPPATHRAGPAAAQDVVCTYTPPDNLSGAGKWGDQKLAAAAGAGSIAATRLVRLAHQQGSSLIGAQHQVPAKTDDASDDMELTDYVVTRWYRPPEILISPFCYSKPVDLWSVGCIFAELLGRRALFAGKDHFDQLRRIVRVLGRPSTAEINKVANEGRGRHFNNPSKGTSNTKRKRSEAARRFIESLPNSDPYKLEDLFPDASKAALDLLSNLLTFDPAKRITVQEALRHEYFEGLHSVEDEPTVTTPVNWSFDNFVPTKR,soluble
10,MSQTILFVCATGIATSTAVTEKVMEYCKEQGLNVNYSQTNVASLPGNTDGVALVVSTTKVPYELDVPVVNGLPIITGIGEEKVLAQIVSILKK,soluble
11,MSRDGQNGTATFYFDEPQALVGEVRQDITGMYLLDDEGELATREVKAKFINGQPAGLEAVYLMRSPEEWDRFMRFMQRYAEANGLGFTEALEHHHHHH,not soluble
12,MSRFIPIELHHASRLLNHGPTVLITSFDEQSQRRNIMAAAWSMPVEFEPPRVAIVVDKSTWTRELIEHNGKFGIVIPGVAATNWTWAVGSVSGRDEDKFNCYGIPVVRGPVFGLPLVEEKCLAWMECRLLPATSAQEEYDTLFGEVVSAAADARVFVEGRWQFDDDKLNTLHHLGAGTFVTSGKRVTAG,soluble
13,MSRGDKMLKFEIKARDGAGRIGKLEVNGKKIETPAIMPVVNPKQMVVEPKELEKMGFEIIITNSYIIYKDEELRRKALELGIHRMLDYNGIIEVDSGSFQLMKYGSIEVSNREIIEFQHRIGVDIGTFLDIPTPPDAPREQAVKELEITLSRAREAEEIKEIPMNATIQGSTYTDLRRYAARRLSSMNFEIHPIGGVVPLLESYRFRDVVDIVISSKMALRPDRPVHLFGAGHPIVFALAVAMGVDLFDSASYALYAKDDRYMTPEGTKRLDELDYFPCSCPVCSKYTPQELREMPKEERTRLLALHNLWVIKEEIKRVKQAIKEGELWRLVDERARSHPKLYSAYKRLLEHYTFLEEFEPITKKSALFKISNESLRWPVVRRAKERAKSINERFGELVEHPIFGRVSRYLSLTYPFAQSEAEDDFKIEKPTKEDAIKYVMAIAEYQFGEGASRAFDDAKVELSKTGMPRQVKVNGKRLATVRADDGLLTLGIEGAKRLHRVLPYPRMRVVVNKEAEPFARKGKDVFAKFVIFADPGIRPYDEVLVVNENDELLATGQALLSGREMIVFQYGRAVKVRKGVE,soluble
14,MSRIMIQGTASSVGKSILVAALCRIFKQDGFSVCPYKSQNMSLNSYITLDGKEMGRAQVLQAYAAGLEPEVYMNPILLKPTTDKSCQVIVKGEVYGVSSAKNYYNMKKEFAPMLKEDFEELEDKFDIVVIEGAGSPAEINLRENDIVNMGLAELVDAPVVLVGDIDKGGVFASLFGTVMLLEENERKRIKGTIINKFRGDVEILKPGLSMLEERINIPCFGVVPYFN,not soluble
15,MSRISSMAYKWKQPPPPINDDSRHRSQSNSRLFDRIYGQMHRGNKAFEHTTSYDESISGFMRRRFAGNGERALPLRYGTNPHQKDDAELYIVEDEMPIKVLNGSPGYINILDGLNGWQLVKELSDATKMPAAASFKHVSPAGAAVGLPLNETEAACCMVSDLPIDTKKPSLAAAYARARGADRMSSFGDFIALSEKCDELTAKIINREVSDGVVAPDFDPAALSLLAKKKNGNYCVLKINPNYLPSETEERTVFGLRLRQKRNNAVINAETFNNVVGSANELNKQAIDDLIVATIALKYAQSNSVCFAHRGQVIGMGAGQQSRIHCTRLAGDKAMNWWLRQHPTVLSLPWKNAIKRSEKSNAIDVLCSGVLGSEVCNFKFNRPLSYFSLVTNL,not soluble
16,MSRPESVLQLARKFGEISAAQENDIHKSRLSLKLGGKENLTKPTLILSKSGPPTPIRHVAPTITHTLPNRPNIGGIASLKSEPKMSRPNMFKQMEKVESNTTTTAPPRQLNPNSIKDALLRWIQNRVAGYPNVNVTNFSSSWADGMAFCALIHRFAPNSFDFSKLDPNNRRYNFDLAFKVAEDNGIFPLLEVDDMIMMGDRPDWKCVFTYVQSFYKQFRDHP,not soluble
17,MSRPPSRPRMMCARVLLLLSVTGLVLACETGPSSGDYEQAVMQDRVQRDMQMREKESVLPPGRREAFRGLNFYEVDPAYRYTVPLRRFETPDTVMIPESTGDLRPQQRIGEVTVPLPEGPEELVVFRGEGDTPRGRLWIPFADSTNRHATYKGGRYVDLTSTDSDSVVVDFNRAYNPTCAYNPDFACPLPPPENRIAVPVAAGEKRPTFGG,soluble
18,MSRQNPVRSTRGNSLRAREAQQAQDAPLFQESSSNVFVVEKVLNKRLTRGGSEYYIKWQGFPESECSWEPIENLQCDRMIQEYEKEAAKRTTRKRRYSPQPSTSSSAELQPSTSDEWAGKTLKTIIGITKAPGELHFLCKFSDDSVHLIPLREANVRFPSQVIKFYETRLVLQGVSPTIPGGMS,not soluble
19,MSRRRQFDDEDEVQMKRRRGAPLIEDVEKKLQGVIGKVGENTGSSIECNLDKLTAFLHDDLEKYRASIIDIIAGCAIYLPNRVTVYTTLVGLLNSKNFNFGGDVVEKLISEQQDLLSKQKYQEAQNLAIFLCDLGNSGVLTAQSIGEYLESFIAAAFEENMPQVRNDYYIQTVLRCLPWIGKELTEKAPEQMENIGEAIGKYLELRNKNHVALLQVWREGSTDQKQEDYLESLSAQIEALRNADWVENHIPRHYSGFETTLQDALQHNLPSFQSPEHTSDMIYPYPLVVFRLFQDADCSAFSSKPLPGDSSIDRFLFEGEIAWIIEKNQFNRKACARELLAFAEENPSVPIGFLIFETIFGQMLRLPHAPYPAIFHCSLVLELLKLKPDDYPQILVQTVECIYRRADSMQPVCIDRMVDWFSFHLSNFQYRYTWTDWKDCLNKDAFSGSQIFVREVIEKCRRFGSYEKIIAALPQDFVKIHPCSPEVRYLIDEEDTALVQRAETFTQMFQERQPAEAFLNELKSNDENDELPYNINEFGLFVMVMLKMASKTYSHNFSALFRYQTTLKTVCDASELYQEKLLETLYSCWKTNQQMLMILTDKLLKMQVIDCSAVVGWLFDEKMWQEHDRQWLFEVLNQALEKLTRQINVVEKDIKELTEKTENKIKEEDDEESDIKMDEDETKEEKFKQDLEDLENNKEKLERMVTFQKGLFNDFLIAFIEEIKNAATSNTSEMDGSGDTPGTQTPKFMWLRGRFCHVLLAHAETLLKHSSNIADEVFSEGTDPSIIECFNQFQSLRL,not soluble
20,MSSEIAYSNTNTNTENENRNTGAGVDVNTNANANANATANATANATANATAELNLPTVDEQRQYKVQLLLHINSILLARVIQMNNSLQNNLQNNINNSNNNNIIRIQQLISQFLKRVHANLQCISQINQGVPSAKPLILTPPQLANQQQPPQDILSKLYLLLARVFEIW,not soluble
21,MSSFTHFNEQGRAKMVDITHKEDTVRVAVAQTSVTVSREIYEKMTSNAIEKGDVLAVAQVAGVMAAKKTADLIPMCHPLMLKGVDIAFAWENDGEAHKLVITATVKTKGSTGVEMEALTAASVCALTVYDMCKALDKGMVIGPTYLVEKTGGKSGHYRRKTD,soluble
22,MSSGVAAPQPSSCVPSRVSVLSMDFEDIYRFFQDPPPHYLSKELAVCYVLAVLRHEDSYGTELIQHLETHWPNYRLSDTVLYTALKFLEDEQIISGYWKKVEGRGRPRRMYQLAQANDDRSRDLAQLWERYLSSSAATDRQLIPVEAR,soluble
23,MSSILTNNGAMVALQTLKSVNMNLGQTQNAISTGKNVATAKDNSAVWAISKVMESDVKGFKAIKDSLSLGESTVAVARNAAETVTDLLTQMKGKIVAAQEDNVDRNKINADVTALKDQISAVVGAAQFNGLNLVDGTAASASVLSSLDRDNAGNVTASSITVTGQNLSTGGYTAKAVFDATNTDGVSADGQDTFGFSLDANGGTDDNGQIEFEPQGTAAYAAGDSFTIRLGDTEVNYTVTAEDIASTSQADVIAVGMKAAIEASGANVTVDYNAANSGRLVITNDGTDSLQVSGQFSNANSGGLGALAAIDVSNSAGAAAALGSIETLIDTSIDAAAAFGSVQGRIETQKTFISNLTDSLKSGIGSMVDADMEEVSARLQALQVQQQLAVQSLSIANQAPQSILSLFR,not soluble
24,MSSIPQNIKGNNQPDIQKSFVAVHNQPGLYVGQQARFGGKVINVINGKTDTLLEISVLPLDSYAKPDIEANYQGRLLARQSGFLDPVNYRNHFVTILGTIQGEQPGFINKVPYNFLEVNMQGIQVWHLREVVNTTYNLWDYGYGAFWPEPGWGAPYYTNAVSQVTPELVKLEHHHHHH,soluble
